Details in all cases: remark: other sources report otherwise
Assay [1] concerns the target COVID S1 RBD Fc fusion (Antigen 1) (SARS-CoV-2), P0DTC2. The experiment in a line: phage ELISA. (An ELISA detects its analyte on a solid surface through an enzyme-linked reagent.)
For assay [2], the target named is SARS-CoV-2 S protein trimer (SARS-CoV-2), P0DTC2. Put plainly: column DC/S-T (format not explained).
The target is the same in assay [3]. The experiment in a line: ELISA on coated S trimer; quantity not named.
For assay [4] the target is unchanged. Put plainly: column DB/S-T (format not explained).
The target is the same in assay [5]. The experiment in a line: column Fc/S-T (format not explained).

Changes are numbered by the printed parent chain.

B1: 1-30 (antibody, V domains shown)
VH: EVQLLESGGGLVQPGGSLRLSCAASGFTFSSYAMTWVRQAPGKGLEWVSAISGSGGSTFYADSVKGRFTISRDNSKNTLYLQMNSLRAEDTAVYYCTRPPYGDYGDYWGQGTLVTVSS
VL: QSALTQPASVSGSPGQSITISCTGTSRDVGSYNLVSWYQQHPGKAPKLMIYEGTKRPSGVSNRFSGSKSGNTASLTISGLQAEDEADYYCCSYAGSRTPVVFGGGTKLTVL
What is called Kd is the equilibrium constant for the complex coming apart. A low value points to higher affinity. B1 returned an ELISA fold over background (fold over background) in assay [1] of 1.7. Also, the Kd in assay [2] turned out to be 476000 nM. In assay [3], this molecule returned a S Trimer of 4.02 nM.

B2: 1-4 (antibody, V domains shown)
VH: EVQLLESGGGLVQPGGSLRLSCAASGFTFSSQAMSWVRQAPGKGLEWVSAISGSGGGTYYADSVKGRFTISRDNSKNTLYLQMNSLRAEDTAVYYCAKDRRFGEFDPWGQGTLVTVSS
VL: B1 VL with R27S, S31T, T54S, K55Q, R97S, T98S, P99F
In assay [1], B2 came in with an ELISA fold over background (fold over background) of 1.4. Also, the Kd in assay [4] worked out at 6.6 nM; in assay [2] it was 129 nM; in assay [5], 12.3 nM.

B3: 1-31 (antibody, V domains shown)
VH: B1 VH with T35N
VL: B1 VL with R27S, S31K, T54S, K55Q
Consider B3, for which the ELISA fold over background (fold over background) in assay [1] amounted to 1.3. In assay [3], the S Trimer is 0.8 nM.

B4: 1-3 (antibody, V domains shown)
VH: B2 VH
VL: B1 VL with T25I, R27S, R97S, T98S, P99F
For B4, the ELISA fold over background (fold over background) in assay [1] amounted to 1.8. Also, the equilibrium dissociation constant (Kd) stood at 423 nM in assay [4], 5310 nM in assay [2] and 10 nM in assay [5].

B5: 1-28 (antibody, V domains shown)
VH: EVQLLESGGGLVQPGGSLRLSCAASGFTFSSYGMSWVRQAPGKGLEWVSAISGSGGGTYYADSVKGRFTISRDNSKNTLYLQMNSLRAEDTAVYYCASSSSWQFDYWGQGTLVTVSS
VL: B1 VL with R27S, D28G, T54S, K55Q, R97S, P99H, V100Y
Take B5: the ELISA fold over background (fold over background) in assay [1] came to 1.1. For the same molecule, the Kd in assay [4] was found to be 13.4 nM; in assay [2], 96.6 nM; in assay [5] it was 8.6 nM.

B6: 1-32 (antibody, V domains shown)
VH: B1 VH with T35Y
VL: QSALTQPASVSGSPGQSITISCTGTSSDVGGYNLVSWYQQHPGKAPKLMIYEGNKRPSGVSNRFSGSKSGNTASLTISGLQAEDEADYYCCSYAGSSTFPVVFGGGTKLTVL
B6: the ELISA fold over background (fold over background) in assay [1] is 1.5.
